Source: US20200216495A1 (ADRX, published 2020)
Square brackets hold non-standard residues; d marks the D form. Ends that are not written are not given here.

Target: Ac-VQIINK-NH2 (SEQ ID NO: 23) (N-terminal acetyl (Ac); C-terminal amide (NH2))
Assay: cell-based or functional assay

| VQIINK Inhibition IC50 [µm] | Binder |
| --- | --- |
| 2.21 | [dW][dK][dV][dQ][dV][dR][dW] [wkvqvrw] |
| 2.78 | [dL][dE][dL][dK][dI][dK][dF][dW] [lelkikfw] |
| 2.42 | [dW][dR][dL][dD][dV][dR][dW] [wrldvrw] |
| 2.26 | [dL][dK][dI][dA][dI][dH][dY][dH] [lkiaihyh] |
| 2.49 | [dF][dR][dI][dK][dL][dR][dW] [friklrw] |
| 2.23 | [dW][dR][dL][dR][dI][dH][dW] [wrlrihw] |
| 2.86 | [dW][dR][dL][dR][dI][dA][dW] [wrlriaw] |
| 2.52 | [dF][dK][dL][dW][dL][dR][dW][dF] [fklwlrwf] |
| 2.23 | [dW][dR][dL][dK][dF][dR][dW] [wrlkfrw] |
| 2.82 | [dL][dK][dI][dQ][dI][dH][dY] [lkiqihy] |
| 2.29 | [dF][dR][dL][dR][dI][dW][dW][dF] [frlriwwf] |
| 2.87 | [dL][dK][dL][dH][dL][dH][dF][dH] [lklhlhfh] |
| 2.45 | [dW][dR][dL][dK][dV][dR][dW] [wrlkvrw] |
| 2.38 | [dL][dK][dI][dH][dI][dR][dH][dW] [lkihirhw] |
| 2.74 | [dW][dQ][dL][dQ][dV][dR][dW] [wqlqvrw] |
| 2.35 | [dF][dK][dI][dK][dI][dK][dW] (not fully specified; printed as fkikikw) [fkikikw] |
| 2.66 | [dF][dK][dL][dK][dI][dK][dW] [fklkikw] |
| 2.58 | [dF][dR][dI][dR][dL][dR][dW] [frirlrw] |
| 2.2 | [dW][dR][dL][dE][dI][dH][dW] [wrleihw] |
| 2.61 | [dW][dR][dL][dR][dI][dM][dW] [wrlrimw] |
| 2.69 | [dL][dR][dI][dK][dI][dR][dF][dH] [lrikirfh] |
| 2.53 | [dW][dR][dL][dK][dV][dR][dW][dF] [wrlkvrwf] |
| 2.27 | [dW][dQ][dL][dK][dV][dQ][dW] [wqlkvqw] |
| 2.82 | [dW][dT][dL][dR][dI][dH][dW] [wtlrihw] |
